These are literature values, as cited in publication PMC8296306.

In one data set the target is Cxcl1/KC (Mus musculus) (UniProt P12850).
The target in data set [1] is Cxcl2/MIP2 (Mus musculus) (UniProt P10889).

pKd: −log10 of the molar value.

As usually defined, the pKd is the negative decadic logarithm of the Kd, by convention in mol/L. For the substance Cxcl1/KC (from UniProt P12850), in the data set with Cxcl1/KC (Mus musculus), the pKd was 4.46.

For the substance Cxcl2/MIP2 (from UniProt P10889), in data set [1], the pKd was 4.82.
